Data reported in patent US7790363B2, “Diagnostic test for vitamin B12” (Abbott Laboratories Inc., priority 2005, dated 2010).

B1: Porcine IF cDNA54-1254-Mature Peptide: Porcine intrinsic factor mature peptide, 399 amino acids, SEQ ID NO: 9, expressed from pGEMEX-1 expression vector (protein)
chain: STQTRSSCSVPSAEQPLVNGIQVLMEQSVTSSAFPNPSILIAMNLAGAYNTEAQELLTYKLMATNTSDLTTGQLALTIMALTSSCRDPGNRIAILQGQMENWAPPSLDTHASTFYEPSLGILTLCQNNPEKTLPLAARFAKTLLANSSPFNMDTGAMATLALTCMYNKIPVGSEEGYRALFSQVLRNTVENISMRIQDNGIIGNIYSTGLAMQALSVTPEQPNKEWDCQKTMDTVLTEIKEGKFHNPMAIAQILPSLKGKTYLDVPHVSCSPGHEVPPTLPNHPSPVPTPAPNITVIYTINNQLRGVELLFNETISVSVKRGSVLLIVLEEAQRKNPKFKFETTMTSWGPVVSSINNIAENVNHRTYWQFLSGQTPLNEGVADYIPFNHEHITANFTQY
modifications: S. scrofa
B2: recombinant porcine intrinsic factor: Recombinant porcine intrinsic factor produced in E. coli from the pMAL-IF or pET32a-IF vector, affinity purified (protein)
chain: YNLKAQKLLTYKLMATNTSDLTTGQLALTIMALTSSCRDPGNRIAILQGQMENWAPPSLDTHASTFYEPSLGILTLCQNNPEKTLPLAARFAKTLLANSSPFNMDTGAMATLALTCMYNKIPVGSEEGYRALFSQVLRNTVENISMRIQDNGIIGNIYSTGLAMQALSVTPEQPNKEWDCQKTMDTVLTEIKEGKFHNPMAIAQILPSLKGKTYLDVPHVSCSPGHEVPPTLPNHPSPVPTPAPNITVIYTINNQLRGVELLFNETISVSVKRGSVLLIVLEEAQRKNPKFKFETTMTSWGPVVSSINNIAENVNHRTYWQFLSGQTPLNEGVADYIPFNHEHITANFTQY
modifications: S. scrofa

Columns and labels:
[1] = Solubility of the protein expressed in E. coli; assay type: physicochemical; conditions: expression in E. coli from the named vector
Protocol: Using the Porcine IF cDNA14-1248 (SEQ ID NO: 5) as the template and the Forward Primer pIFMP-ForI (SEQ ID NO: 14) and Reverse Primer pIFMP-RevXhoI (SEQ ID NO: 15), the cDNA encoding the Porcine IF cDNA54-1254-Mature Peptide was amplified by PCR. The PCR profile was as follows: one initial denaturation step at a temperature of 95° C. for 5 minutes; then 33 cycles of the following conditions: a temperature of 95° C. for 30 seconds, then a temperature of 57° C. for 30 seconds, then a temperature of 72° C. for 1 minute; followed by a final extension at a temperature of 72° C. for 5 minutes. This PCR fragment was subcloned into pGEMEX-1 expression vector (purchased from Promega Corporation, Madison, Wis.).
To produce a soluble version of this protein, cDNA encoding the Porcine IF cDNA54-1254-Mature Peptide was amplified by PCR using IF cDNA14-1248 (SEQ ID NO: 5) as the template and the Forward primer pIF-PIC-MP-For EcoR1 (SEQ ID NO: 16) and the Reverse pIF-MP-pMAL-SaI1 Rev primer (SEQ ID NO: 17) and the following PCR conditions: one initial denaturation step at a temperature of 95° C. for 5 minutes; then 35 cycles of the following conditions: a temperature of 95° C. for 30 seconds, then a temperature of 56° C. for 30 seconds, then a temperature of 72° C. for 1 minute; followed by a final extension at a temperature of 72° C. for 5 minutes. […]

[2] = "ARCHITECT" Intrinsic Factor Binding Capacity Assay (one-step competitive assay); conditions: read from vitamin B12 calibration curve, converted to binding capacity using an equation
Protocol: The vitamin B12-binding capacity of the recombinant porcine Intrinsic Factor was measured using in “ARCHITECT” Intrinsic Factor Binding Capacity Assay. The assay is a one-step competitive assay where intrinsic factor from the test sample competes with intrinsic factor coated onto microparticles for the vitamin B12-acridinium tracer. Thus, signal in the assay is inversely proportional to the concentration of intrinsic factor in the test sample. The results are read from a vitamin B12 calibration curve, and the vitamin B12 concentration results are converted to binding capacity using an equation. The Binding Capacity Value for the recombinant porcine intrinsic factor was determined to be 904 ng/ml.

[3] = vitamin B12-Alkaline Phosphatase conjugate blot; assay type: binding; conditions: E. coli lysate, SDS-PAGE, blotted onto nitrocellulose, probed with vitamin B12-alkaline phosphatase conjugate
From the text: FIG. 2 illustrates the binding of recombinant porcine intrinsic factor to vitamin B12. The E. coli cells were lysed and the proteins were resolved using SDS-PAGE and blotted onto a nitrocellulose membrane. The membrane was probed with vitamin B12 conjugate to alkaline phosphatase. […] Lane 1 contains molecular weight markers (marked in kilodaltons). Lanes 2, 3, 4, and 5 represent cells from various clones expressing recombinant porcine intrinsic factor. Lane 6 contains the native porcine intrinsic factor (purified from hog (Sus scrofa) gut).
(§1) The E. coli lysate containing the expressed recombinant porcine intrinsic factor was run on an SDS-PAGE (Polyacrylamide Gel Electrophoresis), and the gel was blotted onto nitrocellulose. This blot was probed with vitamin B12-alkaline phosphatase conjugate and developed using an appropriate substrate. […] Referring now to FIG. 2, Lane 1 contains molecular weight markers (marked in kilodaltons). Lanes 2, 3, 4, and 5 represent cells from various clones expressing recombinant porcine intrinsic factor. Lane 6 contains the native porcine intrinsic factor (purified from hog (Sus scrofa) gut).

[4] = test system: anti-intrinsic factor antibody; assay: Western blotting with anti-intrinsic factor antibody; assay type: binding; conditions: E. coli lysate, SDS-PAGE, blotted onto nitrocellulose, probed with anti-intrinsic factor antibody
From the text: FIG. 3 illustrates the binding of recombinant porcine intrinsic factor to anti-intrinsic factor antibody by Western blotting. The E. coli cells were lysed and the proteins were resolved using SDS-PAGE and blotted onto a nitrocellulose membrane. The membrane was then probed with anti-intrinsic factor antibody. Lane 1 contains molecular weight markers (marked in kilodaltons). Lanes 2, 3, 4, and 5 represent cells from various clones expressing recombinant porcine intrinsic factor. Lane 6 contains the native porcine intrinsic factor (purified from hog (Sus scrofa) gut).
as §1, with “E. Coli” for “E. coli”, “with anti-intrinsic factor antibody” for “with vitamin B12-alkaline phosphatase conjugate”, “FIG. 3,” for “FIG. 2,”

Molecule | solubility of the expressed protein [1] | Binding Capacity Value (vitamin B12-binding capacity) [2] [ng/mL] | binding to vitamin B12 (band developed color) [3] | binding to anti-intrinsic factor antibody (band developed color) [4]
B1 | insoluble and formed inclusion bodies | – | – | –
B2 | – | 904 | bound to vitamin B12 | recognized by the antibody
